# Source: the Human Domainome abundance scans (Beltran et al. 2025)
# ± gives the uncertainty stated by the source.
# B1: Far upstream element-binding protein 3, residues 75 to 150; numbered along this chain, Q96I24 (parent)
# chain: RTVITEEFKVPDKMVGFIIGRGGEQISRIQAESGCKIQIASESSGIPERPCVLTGTPESIEQAKRLLGQIVDRCRN
# Variants of: B1
# Assay: abundance fitness (aPCA) (normalised: wild type 0, dead -1); higher = more abundant; growth selection in yeast, the domain comes from the species named
# Conditions: Homo sapiens
row,Variant,abundance fitness
1,RTVITEEFKVPDKMVGFIIGRGGEQISRIQAESGCKIQIASHSSGIPERPCVLTGTPESIEQAKRLLGQIVDRCRN,0.01 ± 0.084
2,RTVITEEFKVPDKMVGFIIGRGGEQISRIQAESGCKIQIASNSSGIPERPCVLTGTPESIEQAKRLLGQIVDRCRN,-0.043 ± 0.065
3,RTVITEEFKVPDKMVGFIIGRGGEQISRIQAESGCKIQIASISSGIPERPCVLTGTPESIEQAKRLLGQIVDRCRN,-0.139 ± 0.077
4,RTYITEEFKVPDKMVGFIIGRGGEQISRIQAESGCKIQIASESSGIPERPCVLTGTPESIEQAKRLLGQIVDRCRN,-0.053 ± 0.069
5,RTVITEHFKVPDKMVGFIIGRGGEQISRIQAESGCKIQIASESSGIPERPCVLTGTPESIEQAKRLLGQIVDRCRN,-0.002 ± 0.05
6,RTVITEVFKVPDKMVGFIIGRGGEQISRIQAESGCKIQIASESSGIPERPCVLTGTPESIEQAKRLLGQIVDRCRN,-0.036 ± 0.029
7,RTVITEEFKVPDKMVGFIIGRGGEVISRIQAESGCKIQIASESSGIPERPCVLTGTPESIEQAKRLLGQIVDRCRN,-0.08 ± 0.032
8,RTVITEEFKVPDKMVGFIIGRGGEMISRIQAESGCKIQIASESSGIPERPCVLTGTPESIEQAKRLLGQIVDRCRN,-0.036 ± 0.046
9,RTVITEEFKVPDKMVGFIIGRGGEQISRIQAESGCKIQIASESSGIPERPCVLTGTPESIEQAKRLWGQIVDRCRN,-0.981 ± 0.059
10,RTVITEEFKVPDKMVGFIIGRGGEQISRIQAESGCKIQIASESSGIPERPCVLTGTPESIEQAKRLLGEIVDRCRN,0.025 ± 0.037
11,RTVITEEFKVPDKMVGFIIGRGGEQISRIQAESGCKIQIASESSGIPERPCVLTGTPESIEQAKRLLGQDVDRCRN,-0.209 ± 0.056
12,RTVITEEFKVPDKMVGFIIGRGGEQISRIQAESGCKIQIASEFSGIPERPCVLTGTPESIEQAKRLLGQIVDRCRN,-0.092 ± 0.1
13,RTVITEEFKVPDKMVGFIIGRGGEQISRIQAESGCKIQIASESSGIPERPCELTGTPESIEQAKRLLGQIVDRCRN,-0.073 ± 0.037
14,RTVITEEFKVPDKMVGFIIGRGGEQISRIQAESGCKIQIASESSGIPERPCYLTGTPESIEQAKRLLGQIVDRCRN,-0.115 ± 0.056
15,RTVITEEFKVYDKMVGFIIGRGGEQISRIQAESGCKIQIASESSGIPERPCVLTGTPESIEQAKRLLGQIVDRCRN,-0.303 ± 0.068
16,RTVITEEFKVSDKMVGFIIGRGGEQISRIQAESGCKIQIASESSGIPERPCVLTGTPESIEQAKRLLGQIVDRCRN,-0.182 ± 0.037
17,RTVITEEFDVPDKMVGFIIGRGGEQISRIQAESGCKIQIASESSGIPERPCVLTGTPESIEQAKRLLGQIVDRCRN,-0.129 ± 0.044
18,RTVITEEFKVPDKMVGFIIGRGGEQISRIQAESGCKIQIASESSGPPERPCVLTGTPESIEQAKRLLGQIVDRCRN,0.016 ± 0.046
19,RTVITEEFKVPDKMVGFIIGRGGEQISRIQAESGCKIQIASESSGVPERPCVLTGTPESIEQAKRLLGQIVDRCRN,-0.007 ± 0.029
20,RTVITEEFKVPDKMVGFIIGRGGEQISRIQAESGCKIQIASESSGWPERPCVLTGTPESIEQAKRLLGQIVDRCRN,-0.093 ± 0.033
21,RTVITEEFKVPDKMVGFIIGRWGEQISRIQAESGCKIQIASESSGIPERPCVLTGTPESIEQAKRLLGQIVDRCRN,-0.149 ± 0.036
22,RTVITEEFKVPDKMVGFIIGAGGEQISRIQAESGCKIQIASESSGIPERPCVLTGTPESIEQAKRLLGQIVDRCRN,0.005 ± 0.031
23,RTVITEEFKVPDKMVGFIIGKGGEQISRIQAESGCKIQIASESSGIPERPCVLTGTPESIEQAKRLLGQIVDRCRN,-0.025 ± 0.043
24,RTVITEEFKVPDKMVGFIIGYGGEQISRIQAESGCKIQIASESSGIPERPCVLTGTPESIEQAKRLLGQIVDRCRN,-0.182 ± 0.072

row,Variant,abundance fitness
1,RTVITEEFKVPDKMVGFIIGRGGEQISRIQAESGCKIQIASESSGIPERPCVLTDTPESIEQAKRLLGQIVDRCRN,-0.905 ± 0.077
2,RTVITEEFKVPDKMVGFIIGRGGEQISRIQAESGCKIQIASESSGIPERPCVLTGTMESIEQAKRLLGQIVDRCRN,-0.111 ± 0.057
3,RTVITEEFKVPDKMVGFIIGRGGEQISRIQAESGCKIQIASESSGIPERPCVLTGTSESIEQAKRLLGQIVDRCRN,-0.109 ± 0.042
4,RTVITEEFKVPDKMVGFIIGRGGEQISRIQAESGCKIQIASESSGIPERPCVLTGTTESIEQAKRLLGQIVDRCRN,0.006 ± 0.048
5,RTVITEEFKVPDKMVGFIIGRGGEQISRIQAERGCKIQIASESSGIPERPCVLTGTPESIEQAKRLLGQIVDRCRN,-0.827 ± 0.036
6,ETVITEEFKVPDKMVGFIIGRGGEQISRIQAESGCKIQIASESSGIPERPCVLTGTPESIEQAKRLLGQIVDRCRN,-0.062 ± 0.049
7,CTVITEEFKVPDKMVGFIIGRGGEQISRIQAESGCKIQIASESSGIPERPCVLTGTPESIEQAKRLLGQIVDRCRN,0.032 ± 0.059
8,RTVITEEFKVPDKMVGFIIGRGGEQISRIQAESLCKIQIASESSGIPERPCVLTGTPESIEQAKRLLGQIVDRCRN,-0.264 ± 0.036
9,RTVITEEFKVPDKMVGFIIGRGGEQISRIQAESGCKIQIASESSGIPERPCVLTGTPESDEQAKRLLGQIVDRCRN,-0.972 ± 0.082
10,RTVITEEFKVPDKMVGFIIGRGGEQISRIQAESGCKIQIAHESSGIPERPCVLTGTPESIEQAKRLLGQIVDRCRN,-0.099 ± 0.089
11,RTVITEEFKVPDKMVGFIIGRGGEQICRIQAESGCKIQIASESSGIPERPCVLTGTPESIEQAKRLLGQIVDRCRN,-0.147 ± 0.054
12,RTVITEEFKVPDKMVGFIIGRGGEQISRIQAESGCKIQIASESSGIPERPCVLTGTPESIEQAKGLLGQIVDRCRN,-0.053 ± 0.026
13,RTVITEEFKVPDKMVGFIIGRGGEQISRIQAESGCKIQIASESSGIPERPCVLTGTPESIEQAKILLGQIVDRCRN,0.057 ± 0.067
14,RTVITEEFKVPDKMVGFIIGRGGEQISRIQAESGCKIQIASESSGIPERPCVLTGAPESIEQAKRLLGQIVDRCRN,-0.086 ± 0.032
15,RTVITEEFKVPDKMVGFIIGRGGEQISRIQAESGCIIQIASESSGIPERPCVLTGTPESIEQAKRLLGQIVDRCRN,-0.112 ± 0.061
16,RTVITEEFKVPDKMVGFILGRGGEQISRIQAESGCKIQIASESSGIPERPCVLTGTPESIEQAKRLLGQIVDRCRN,-0.024 ± 0.033
17,RTVITEEFKVPDKMVGFIIGRGGEQISRGQAESGCKIQIASESSGIPERPCVLTGTPESIEQAKRLLGQIVDRCRN,-0.677 ± 0.028
18,RTVITEEFKVPDKMVGFIIGRGGEQISRTQAESGCKIQIASESSGIPERPCVLTGTPESIEQAKRLLGQIVDRCRN,-0.271 ± 0.042
19,RTVITEEFKVPDKMVGFIIGRGGEQISRIQAESGCKIQIASESSGIPERPCVLTGTPESIEQAKRLLGQIVSRCRN,-0.035 ± 0.033
20,RTVITEEFKVPDKMVGFIIGRGGEQPSRIQAESGCKIQIASESSGIPERPCVLTGTPESIEQAKRLLGQIVDRCRN,-0.628 ± 0.045
21,RTVITEEFKVPDKMVGFIIGRGGEQISRIQAESGCKIQIASESSGIPERPHVLTGTPESIEQAKRLLGQIVDRCRN,-0.475 ± 0.092
22,RTVITEEFKVPDKMVGFIIGRGGEQISRIQAESGCKIQIASESSGIPERPCVLTGTPESIEQAKRLLGQIVDRRRN,0.008 ± 0.027
23,RTVITEEFKVPDKMVGFIIGRGGEQISRIQAESGCKIQIASESSGIPERPCVLTGTPESIEQAKRLLGQIVDRMRN,-0.021 ± 0.042
24,RTVITEEFKVPDKMVGFIIGRGGEQISRIQAESGCKIQIASESHGIPERPCVLTGTPESIEQAKRLLGQIVDRCRN,-0.013 ± 0.066

row,Variant,abundance fitness
1,RTVITEEFKVPDKMVGFIIGRGGEQISRIQAESGCKIQIASESKGIPERPCVLTGTPESIEQAKRLLGQIVDRCRN,-0.005 ± 0.042
2,RTVITEEFKVPDKMVGFIIGRGGEQISRIQAESGCKIQIASESGGIPERPCVLTGTPESIEQAKRLLGQIVDRCRN,-0.021 ± 0.027
3,RTVITEEQKVPDKMVGFIIGRGGEQISRIQAESGCKIQIASESSGIPERPCVLTGTPESIEQAKRLLGQIVDRCRN,-0.34 ± 0.046
4,RTVITEEFKVPDKYVGFIIGRGGEQISRIQAESGCKIQIASESSGIPERPCVLTGTPESIEQAKRLLGQIVDRCRN,-0.176 ± 0.083
5,RTVIDEEFKVPDKMVGFIIGRGGEQISRIQAESGCKIQIASESSGIPERPCVLTGTPESIEQAKRLLGQIVDRCRN,-0.204 ± 0.068
6,RTVITEEFKVPNKMVGFIIGRGGEQISRIQAESGCKIQIASESSGIPERPCVLTGTPESIEQAKRLLGQIVDRCRN,-0.004 ± 0.058
7,RTVITEEFKVPDKMVGFIIGRGGEQISRIQAGSGCKIQIASESSGIPERPCVLTGTPESIEQAKRLLGQIVDRCRN,-0.237 ± 0.026
8,RTVITEEFKIPDKMVGFIIGRGGEQISRIQAESGCKIQIASESSGIPERPCVLTGTPESIEQAKRLLGQIVDRCRN,-0.036 ± 0.056
9,RTVITEEFKVPDKMVGFIIGRGGEQISRIQAESGCKIQIASESSGIPERPCVLTGTPESIEVAKRLLGQIVDRCRN,-0.008 ± 0.033
10,RTVITEEFKVPDKMVGFIIGRGGEQISRIQAESGCKIQIASESSGIPERPCVLTGTPESIEWAKRLLGQIVDRCRN,-0.102 ± 0.044
11,RTVITEEFKVPDKMVGFIIGRGGEQISRIQAESGCKIQIASESSGIPERPCVLTGTPESIEQAERLLGQIVDRCRN,-0.388 ± 0.038
12,RTVITEEFKVPDKMVGFIIGRGGEQISRIQAESGCKITIASESSGIPERPCVLTGTPESIEQAKRLLGQIVDRCRN,-0.047 ± 0.044
13,RTVITEEFKVPDKMVGFIIGRGGEQISRIQAESGCKINIASESSGIPERPCVLTGTPESIEQAKRLLGQIVDRCRN,-0.086 ± 0.066
14,RTVITEEFKVPDKMVGFIIGRGGEQISRIQAESGCKIQIASESSGIPERPCVLTGTPESIEQHKRLLGQIVDRCRN,-0.911 ± 0.1
15,RTVITEEFKVPDKMVGFIIGRGGEQISRIQAESGCKIQIASESSGIPERPCVLTGTPEDIEQAKRLLGQIVDRCRN,-0.1 ± 0.058
16,RTVITEEFKVPDKMVGFIIGRGGEQISRIQAESGCKIQIASESSGIPWRPCVLTGTPESIEQAKRLLGQIVDRCRN,-0.055 ± 0.032
17,RTVITEEFKVPDKMVGFIIGRGGEQISRIQAESGCKIQIASESSGIPERPCVLTGTPESIEQAKRELGQIVDRCRN,-0.079 ± 0.034
18,RTVITEEFKVPDKMVGFIIGRGGEQISRIQAESGCKIQIASESSGIPERPCVLTGTPESIEQAKRDLGQIVDRCRN,-0.123 ± 0.049
19,RTVITEEFKVPDKMVGFIIGRGGEQISRIQAESGCKIQIASESSGIPERPCVLTGTPESIEQAKRALGQIVDRCRN,-0.036 ± 0.033
20,RTVITEEFKVPDKMQGFIIGRGGEQISRIQAESGCKIQIASESSGIPERPCVLTGTPESIEQAKRLLGQIVDRCRN,-0.162 ± 0.043
21,RTVITEEFKVPDKMVGFIIGRGGEQISRIQAESGCKIQIASESSGIPERPCVLTGTPESIEQAKRLLLQIVDRCRN,-0.046 ± 0.032
22,RTVITEEFKVPDKMVGFIIGRGGEQISRIQAESGCKIQIASESSGIPERPCVWTGTPESIEQAKRLLGQIVDRCRN,-1.42 ± 0.13
23,RTVITEEFKVPDKMVGFIIGRGGEQISRIQAESGCKIQIASESSGIPERPCVLPGTPESIEQAKRLLGQIVDRCRN,-1.15 ± 0.12
24,RTVITEEFKVPDKMVGFIIGRGGEQISRIQAESGCKCQIASESSGIPERPCVLTGTPESIEQAKRLLGQIVDRCRN,-0.239 ± 0.04
